B1: GST-XtopBP1 (1-348) (other)
chain: MASSENEPFCVKFIKSPENSEYFFKAYEAIKQIQSDESLQLTEEREALLLKEKDKSLYICDPFSGAAFSHLKKLGCRIVGPQVVIFCMENQRRVPRAEYPVYNMAMADVTISCTSLDKETREDVHHYVQIMGGCVYRDLNVSVTHLIAGEVGSKKYLVAASLEKPILLPSWVKELWEKSNQRIIRYSDVNMTEYLCPIFRGCTICVTGLSSLDRKEVQRLTALHGGEYTGQLKMNESTHLIVQEAKGQKYECARKWNVHCISVQWFFDSIEKGFCQDETMYKIEPASTIKSVPDTSTPTGGNSKPNSRALYDVSQISNISTSCVNESAFNSAMASRLDPPADTLENLD
notes: BRCT-containing fragment; not shown: glutathione-S-transferase (GST) fusion partner
B2: GST-XtopBP1 (623-984) (other)
chain: TPVPFLEGSTPLRECVLSVSQFMGAERDSLVYLAGLLGAKVQEFFVRKANPKKGMFASTHLVLKDAEGSKYEAAKKWNLPAVTMNWLLQCARTGRKADEDSYLVDNVPEEDKDESFISQTYKPQAIRLSMHAPCHLENHPEALTKAAVTPLDMNRFKSKAFQSVISQHNKNPQTSGGESKVLQREPSLHLDTPSKFLSKDKLFKPSFDVKDALAALETPGGPNQKNRTQSTPLSEVIGRNLQLAIANSTRQTAAVTASPQLKAAEKKEFDNSKLLINVVICVSKKLIKKQGELNGIAASLGAEYRWCFDESVTHFIYHGRQNDMSREYKSVKERSGIYIVSEHWLFACSEQQKRVPEALYPH
notes: BRCT-containing fragment; also called GST fusion of the 623-984 segment from XtopBP1; not shown: glutathione-S-transferase (GST) fusion partner
B3: GST-XtopBP1 (1197-1513) (other)
chain: EFEPKSAMRTPVIENNLQSPTKPDHLTPTPQAPSIAFPLANPPVAPQPREKPVQPFSKEETLKERRFQLSSLDPQERIDYSQLIEELGGVVIEKQCFDPSCTHIVVGHPLRNEKYLASMAAGKWVLHRSYLEACRAAKRFIQEEDYEWGSISILSAVTNINPQQRMLAEAAMRWRKKLQGIKQNMGIAEGAFSGWKVILNVDQTKEPGFKRLLQSGGAKVFAGHSSPLFKEASHLFADFSKLKPDEPRVNVAEAAAQGVNCLKPEYIADYLMKELPPPMNNYCLPDAIPYVRVTGTGLSRKRKTSGDVSDVKRSRHY
notes: as for B1
B4: GST-XtopBP1 (333-646) (other)
chain: MASRLDPPADTLENLDISSLQAPDDLLDGCRIYLCGFGGRKLDKLRKLINNGGGVRFNQLTGDVTHIIVGETDEELKQFLNKTQHRPYVLTVKWLLDSFAKGHLQPEEIYFHSSYQQTEMPSPFEPAINLTANKMSSTRGPLNHTRNHQADEDLLSQYTENNSTLIEDEHPKTSNTNSISQMSMHEDMTTCTSQSGLADTSTIIEGGLFSRKQFMVLGFLEEDEACIIDIIKKSAGKVLSSQKRAIADYAVVPLLGCEVESTVGEVVTNAWLGMCIEQEKLLDPHSNALFTPVPFLEGSTPLRECVLSVSQFMG
notes: as for B1

Legend:
[1] = target: T1, Xatr (endogenous Xenopus ATR in egg extracts) (Xenopus laevis, UniProt Q9DE14 1-2654); test: GST pull-down from Xenopus egg extracts, immunoblot
T1 construct: Endogenous protein of whole or mock-depleted egg extracts, where endogenous Xatrip is also present
T1 sequence (Q9DE14 whole entry): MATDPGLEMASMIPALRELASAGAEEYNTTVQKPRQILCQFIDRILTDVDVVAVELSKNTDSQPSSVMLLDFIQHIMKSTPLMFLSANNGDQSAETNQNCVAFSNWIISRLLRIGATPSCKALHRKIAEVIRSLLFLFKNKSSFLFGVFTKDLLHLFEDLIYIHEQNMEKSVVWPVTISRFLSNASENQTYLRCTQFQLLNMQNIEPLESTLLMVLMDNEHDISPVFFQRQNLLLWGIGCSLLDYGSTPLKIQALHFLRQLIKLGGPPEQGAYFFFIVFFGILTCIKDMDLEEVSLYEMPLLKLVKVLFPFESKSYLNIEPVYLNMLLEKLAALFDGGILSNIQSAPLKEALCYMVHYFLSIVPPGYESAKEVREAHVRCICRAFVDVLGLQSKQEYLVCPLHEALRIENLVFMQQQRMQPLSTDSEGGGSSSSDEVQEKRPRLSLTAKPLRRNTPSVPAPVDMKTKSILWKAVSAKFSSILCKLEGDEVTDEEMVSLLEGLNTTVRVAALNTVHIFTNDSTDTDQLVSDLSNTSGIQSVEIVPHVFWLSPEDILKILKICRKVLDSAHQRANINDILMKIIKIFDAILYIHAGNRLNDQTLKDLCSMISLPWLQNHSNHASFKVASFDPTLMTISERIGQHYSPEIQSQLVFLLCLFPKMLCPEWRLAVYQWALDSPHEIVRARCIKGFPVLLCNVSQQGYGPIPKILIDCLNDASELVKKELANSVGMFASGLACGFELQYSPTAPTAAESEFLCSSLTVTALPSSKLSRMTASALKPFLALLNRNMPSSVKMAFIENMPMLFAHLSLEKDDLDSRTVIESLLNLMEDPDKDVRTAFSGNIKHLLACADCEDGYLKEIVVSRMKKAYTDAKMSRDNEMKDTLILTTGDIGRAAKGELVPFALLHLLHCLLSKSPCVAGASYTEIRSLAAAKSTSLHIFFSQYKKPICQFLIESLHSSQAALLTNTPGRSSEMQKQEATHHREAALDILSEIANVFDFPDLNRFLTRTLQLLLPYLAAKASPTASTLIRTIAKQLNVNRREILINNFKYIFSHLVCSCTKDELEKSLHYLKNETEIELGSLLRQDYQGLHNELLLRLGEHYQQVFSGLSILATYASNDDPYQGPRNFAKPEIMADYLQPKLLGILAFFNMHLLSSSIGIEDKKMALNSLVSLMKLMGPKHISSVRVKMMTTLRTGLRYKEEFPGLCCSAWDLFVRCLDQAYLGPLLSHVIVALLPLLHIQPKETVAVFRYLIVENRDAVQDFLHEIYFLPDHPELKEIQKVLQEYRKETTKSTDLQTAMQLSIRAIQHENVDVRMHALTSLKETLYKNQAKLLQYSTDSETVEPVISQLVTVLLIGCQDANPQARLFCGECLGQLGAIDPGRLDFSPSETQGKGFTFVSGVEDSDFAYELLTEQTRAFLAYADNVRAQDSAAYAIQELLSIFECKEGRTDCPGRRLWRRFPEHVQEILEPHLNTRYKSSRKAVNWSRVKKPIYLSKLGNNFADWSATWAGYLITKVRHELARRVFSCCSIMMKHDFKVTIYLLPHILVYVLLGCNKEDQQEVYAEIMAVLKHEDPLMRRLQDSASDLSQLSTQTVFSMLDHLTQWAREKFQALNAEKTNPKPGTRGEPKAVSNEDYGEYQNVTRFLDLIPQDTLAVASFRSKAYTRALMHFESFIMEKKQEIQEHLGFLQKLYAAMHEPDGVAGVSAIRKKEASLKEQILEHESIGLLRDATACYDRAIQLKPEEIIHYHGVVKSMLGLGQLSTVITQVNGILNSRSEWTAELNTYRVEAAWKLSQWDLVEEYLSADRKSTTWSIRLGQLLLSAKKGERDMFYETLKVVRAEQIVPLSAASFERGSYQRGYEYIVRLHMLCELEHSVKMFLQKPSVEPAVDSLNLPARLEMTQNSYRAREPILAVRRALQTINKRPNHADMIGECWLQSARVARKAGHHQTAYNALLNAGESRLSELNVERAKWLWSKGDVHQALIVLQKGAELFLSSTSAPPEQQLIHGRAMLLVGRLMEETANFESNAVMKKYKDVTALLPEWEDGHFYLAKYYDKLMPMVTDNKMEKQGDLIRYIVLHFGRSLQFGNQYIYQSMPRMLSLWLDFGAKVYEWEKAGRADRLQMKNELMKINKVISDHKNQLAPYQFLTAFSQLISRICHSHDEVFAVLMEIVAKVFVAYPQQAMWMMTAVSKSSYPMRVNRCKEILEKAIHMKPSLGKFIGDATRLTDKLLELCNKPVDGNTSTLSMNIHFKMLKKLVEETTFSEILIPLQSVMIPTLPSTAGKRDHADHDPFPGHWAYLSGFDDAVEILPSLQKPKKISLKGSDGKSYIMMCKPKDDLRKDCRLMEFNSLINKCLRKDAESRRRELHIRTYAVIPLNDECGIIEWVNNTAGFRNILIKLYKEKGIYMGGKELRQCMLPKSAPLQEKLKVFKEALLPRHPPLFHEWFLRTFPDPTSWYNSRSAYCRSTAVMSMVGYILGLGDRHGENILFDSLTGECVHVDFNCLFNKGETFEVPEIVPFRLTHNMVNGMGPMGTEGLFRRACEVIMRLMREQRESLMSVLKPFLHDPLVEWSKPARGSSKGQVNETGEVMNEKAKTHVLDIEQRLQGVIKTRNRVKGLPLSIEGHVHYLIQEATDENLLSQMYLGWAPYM

[2] = target: T1, Xatr (endogenous Xenopus ATR in egg …); test: GST pull-down from Xenopus egg extracts, immunoblot (FIG. 4A)
Experimental: The extracts were filtered through a G25 Sephadex column to remove endogenous glutathione and incubated with glutathione agarose beads. The beads were isolated and immunoblotted for Xatr (top) and Xatrip (bottom). In FIG. 4B, egg extracts (lane 1) were immunodepleted with control (lane 2) or anti-Xatrip antibodies (lanes 3 and 4). For lane 4, recombinant XatripΔN222-FLAG was added back later. Extracts were immunoblotted with anti-Xatr (top) and anti-Xatrip antibodies (bottom). […] Binding of Xatr to glutathione beads was determined by immunoblotting as in FIG. 4A. In FIG. 4D, Xatr was immunoprecipitated from mock-depleted (lanes 1 and 2) and Xatrip-depleted extracts (lanes 3 and 4). Twice as much Xatrip-depleted extract was immunoprecipitated due to its reduced content of Xatr. […] Samples were also immunoblotted for Xatr (top) and Xatrip (middle).

Binder	binding result [1]	binding result [2]
B1	no binding	
B2	no binding	
B3		no binding
B4	no binding	

Source: patent US20090098111A1 (CALIFORNIA INSTITUTE OF TECHNOLOGY, published 2009)
